Assay results: US20260116991A1 (HAINAN SIMCERE ZAIMING PHARMACEUTICAL, published 2026)

Tests used:
[1] = molecular target: T1, GPC3 endogenously expressed on HepG2 cells (UniProt P51654 25-554); experiment: FACS on HepG2 cells;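 also: flow cytometric binding of chimeric antibodies to cells, read as mean fluorescence intensity, EC50 obtained by curve fitting of the MFI data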
T1 construct: whole, on cells
Protocol: (§1) The desired cells were expanded to a logarithmic growth phase in a T-75 cell culture flask, the medium was removed by pipetting, and the cells were washed twice with a PBS buffer, and digested with trypsin. Then a complete medium was added to stop the digestion, and the cells were blown into a single cell suspension. After counting, the cells were centrifuged, and the cell pellet was resuspended with an FACS buffer (PBS+2% fetal bovine serum) to 2×10⁶ cells/mL. The cell resuspension solution was added to a 96-well FACS reaction plate at 50 μl/well, and a chimeric antibody sample to be tested was added at 50 μl/well for incubation at 4° C. for 1 h. […] After the plate was centrifuged and washed 3 times with a PBS buffer, 100 μl of the resulting solution was assayed and analyzed by FACS (FACS Canto™, purchased from BD Biosciences). Data analysis was performed by software (FlowJo) to obtain the mean fluorescence intensity (MFI) of the cells. Then, analysis was performed by software (GraphPad Prism8), data were fitted, and EC₅₀ values were calculated.

[2] = molecular target: T2, human GPC3 on CHO-K1-human GPC3 cells (clone CHOK1-hGPC3.2B5) (human, UniProt P51654 25-554); experiment: FACS on CHOK1-hGPC3.2B5 cells;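 also: flow cytometry binding of chimeric antibodies to the cells, read out as mean fluorescence intensity, with the half-maximal concentration derived by curve fitting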
T2 construct: whole, on cells; Stably transfected CHO-K1 clone 2B5
Protocol: as §1

human GPC3-His protein [3] = molecular target: T3, human GPC3-His protein (human, UniProt P51654 25-559); experiment: ELISA, coated human GPC3, antibody 1 nM;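 also: antigen coated at 1 µg/mL on 96-well plates, antibody bound for 2 h at 37 °C, detected with HRP-labeled secondary antibody and TMB, absorbance read at 450 nm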
T3 construct: Bought protein; also called human GPC3 protein; not shown: His tag

human GPC3-His protein [4] = molecular target: T3, human GPC3-His protein; experiment: ELISA, coated human GPC3, antibody 10 nM;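 also: plate coated with antigen at 1 µg/mL, antibodies bound 2 h at 37 °C, detected via HRP-conjugated secondary antibody and TMB substrate, absorbance read after acid stop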
Protocol: (§2) The specific method is described as follows: The antigen protein was diluted with PBS to a final concentration of 1 μg/mL, and the diluent was added to a 96-well ELISA plate at 50 μL/well. The plate was sealed with a plastic film and incubated at 4° C. overnight, washed twice with PBS the next day, and a blocking solution [PBS+2% (w/w) BSA] was added for blocking at room temperature for 2 h. […] After incubation at 37° C. for 2 h, the plate was washed 3 times with PBS. A horseradish peroxidase (HRP)-labeled secondary antibody (purchased from Merck, Cat. No. AP113P) was added for incubation at 37° C. for 1 h, and the plate was washed 5 times with PBS. A TMB substrate was added at 50 μL/well for incubation at room temperature for 10 min, then a stop solution (1.0M HCl) was added at 50 μL/well. An ELISA plate reader (Multimode Plate Reader, EnSight, purchased from Perkin Elmer) was used to read OD_{450 nm} values, with results as shown in Table 4 to Table 6, FIG. 1A, FIG. 1B, and FIG. 1C.

human GPC3-His protein [5] = molecular target: T3, human GPC3-His protein; experiment: ELISA, coated human GPC3, antibody 0.1 nM;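 also: antigen coated on 96-well plates at 1 µg/mL, antibody bound 2 h at 37 °C, detected with HRP-labeled secondary antibody and TMB substrate, acid-stopped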
Protocol: as §2

human GPC3-His protein [6] = molecular target: T3, human GPC3-His protein; experiment: ELISA, coated human GPC3, antibody 100 nM;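 also: antibodies bound to antigen-coated 96-well plates (1 µg/mL), 2 h at 37 °C, detected with HRP-labelled secondary antibody and TMB substrate, absorbance read at 450 nm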
Protocol: as §2

human GPC3-His protein [7] = molecular target: T3, human GPC3-His protein; experiment: ELISA, coated human GPC3, antibody 0.01 nM;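 also: Plate-bound antigen coated at 1 µg/mL, antibody incubated 2 h at 37 °C, binding detected by HRP-conjugated secondary antibody with TMB substrate, read as absorbance at 450 nm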
Protocol: as §2

human GPC3-His protein [8] = molecular target: T3, human GPC3-His protein; experiment: ELISA, coated human GPC3, antibody 0.001 nM
human GPC3-His protein [9] = molecular target: T3, human GPC3-His protein; experiment: ELISA, coated human GPC3, antibody 0.0001 nM

| Binder | EC50 [1] [nM] | Max MFI [1] [MFI] | EC50 [2] [nM] | Max MFI [2] [MFI] | OD450 nm (human GPC3-His protein [3]) [OD450] | OD450 nm (human GPC3-His protein [4]) [OD450] | OD450 nm (human GPC3-His protein [5]) [OD450] | OD450 nm (human GPC3-His protein [6]) [OD450] | OD450 nm (human GPC3-His protein [7]) [OD450] | OD450 nm (human GPC3-His protein [8]) [OD450] | OD450 nm (human GPC3-His protein [9]) [OD450] |
| --- | --- | --- | --- | --- | --- | --- | --- | --- | --- | --- | --- |
| F1.111.11 human-murine chimeric antibody (antibody, human IgG1, kappa, V domains shown) VH: EVQLQQSGPELVKPGASVKISCKASGYTFTDYYMNWVKQSHGKSLEWIGDIYPNNGDTTYNQRFKGKATLTVDKSSSTAYMELRSLASEDSAVYYCACPYNNPFGYWGQGTLVTVSA VL: DVVMTQTPLSLPVSLGDQASISCRSSQSLVHSNGNTYLHWYLQKPGQSPKLLIYKVSNRFSGVPDRFSGSGSGTDFTLKISRVEAEDLGVYFCSQSTHVPWTFGGGTKLEIKR | 1.13 | 1880 | 1.08 | 9230 | 2.41 | 2.46 | 1.61 | 2.7 | 0.41 | 0.14 | 0.1 |
| F1.115.8 human-murine chimeric antibody (antibody, human IgG1, kappa, V domains shown) VH: EVQLQQSGPELVKPGASVKMSCKASGYTFTEYYMHWVKQSHGKSLEWIGYIYPNNGGNGYNQKFKGKATLTVDKSSSTAYMGLRSLTSEDSAVYYCVRGYYSNWYFDVWGTGTTVTVSS VL: DVLMTQTPLSLPVSLGDQASISCRSSQSIVHSNGKTYLEWYLQKPGQSPKLLIYKVSNRFSGVPDRFSGSGSGTDFTLKISRVEAEDLGVYYCFQGSHVPFTFGSGTKLEIKR | 0.18 | 2460 | 0.33 | 9980 | 1.83 | 1.9 | 0.83 | 2.01 | 0.2 | 0.11 | 0.09 |
| F1.118.4 human-murine chimeric antibody (antibody, human IgG1, kappa, V domains shown) VH: QVQLQQSGAELAKPGASVKLSCKASGYSFTSYWIHWVKQRPGQGLEWIGYINPSSGYTKYNQKFKDKATLTADKSSSTAYMQLSSLTYEDSAVYYCARFGSSSFYFDYWGQGTTLTVSS VL: DIVLTQSPASLAVSLGQRATISCRASQSVSSSSYSYMHWYQQKPGQPPKLLIKYASNLDSGVPARFSGSGSGTDFTLNIHPVEEEDTATYYCQHSWEIPAFGGGTKLEIKR | 0.33 | 2810 | 0.53 | 9640 | 1.64 | 1.75 | 0.74 | 1.53 | 0.19 | 0.12 | 0.1 |
| F1.120.16 human-murine chimeric antibody (antibody, human IgG1, kappa, V domains shown) VH: EFQLQQSGPELVKPGASVKISCKASGYSFTDYNMNWVKQSNGKSLEWIGLIHPKFSVTSYNRKFKGKATLTVDQSSSTAYMQLNSLTSEDSAVYYCARWAGDYFDYWGQGTTLTVSS VL: DIVLTQSPATLSVTPGDSVSLSCRASQSISNNLHWYQQKSHESPRLLIKYASQSISGIPSRFSGSGSGTDFTLTINSVETEDFGMYFCQQSNSWPQTFGGGTKLEIKR | 0.38 | 2080 | 0.52 | 9730 | 1.23 | 1.63 | 0.56 | 1.62 | 0.22 | 0.14 | 0.11 |
| F1.136.7 human-murine chimeric antibody (antibody, human IgG1, kappa, V domains shown) VH: EVQLQQSGPVMVKPGPSVKISCQTSGFTFTDYYIHWVKQSHGKSLEWIGLVFPYDGGTNYNQKFKDKATLTLDTSSSTAYMELNSLTSEDSAVYYCARAGGFSYALNYWGQGTSVTVSS VL: DIQMTQSPSSLSASLGGKVTITCKASQDINNYIAWYQHKPGKGPRLLIHFTSTLQPGIPSRFSGSGSGRDYSFSISNLEPEDIATYYCLQYDNLLLTFGAGTKLELKR | 2 | 2240 | 1.41 | 9540 | 0.63 | 1.4 | 0.43 | 1.19 | 0.14 | 0.1 | 0.11 |
| F1.145.22 human-murine chimeric antibody (antibody, human IgG1, kappa, V domains shown) VH: QVQLQQSGTDLARPGASVKLSCKASGYTFTSFGISWVKQRTGQGLEWIGEIYPRSGSPYYNEKFTGKATLTADKSSSTAYMELRSLTSEDSAVYFCAKDFGSSYVFDYWGQGTALTVSS VL: DIQMTQSPASLSASVGETVTITCRASENIYSYLTWYQQKQGKSPQLLVYNAKTLAEGVPSRFSGSGSGTQFSLKINSLQPEDFGTYYCQHHYGTPPTFGTGTKLDLKR | 0.67 | 2160 | 1.18 | 9700 | 1.95 | 2.35 | 0.94 | 2.53 | 0.22 | 0.12 | 0.09 |
| F1.3.9 human-murine chimeric antibody (antibody, human IgG1, kappa, V domains shown) VH: QVQLQQPGTELVKPGASVKLSCKASGYTFTSYWIHWVKQRPGQGLEWIGNINPPNAGTNYNEKFKSKATLTVDKSSSTAYMQLSSLTSEDSAVYYCARGRWLLHDYWGQGTTLTVSS VL: DIQMTQSPASLSISVGETVTITCRASENIYSNLAWYQQKQGKSPQLLVYGTKNLAEGVPSRFSGSGSGTQYSLKINSLQSEDFGNYYCQHFWGTPYTFGGGTKLEILR | 0.8 | 3810 | 2.78 | 3210 | 1.66 | 1.95 | 0.92 | 2.07 | 0.21 | 0.11 | 0.1 |
| F1.9.19 human-murine chimeric antibody (antibody, human IgG1, kappa, V domains shown) VH: DVQLQESGPGLVKPSQSLSLTCSVTGYSITSGYYWNWIRQFPGNRLEWMAYISYDGINNYNPSLKNRISIARDTSTNQFFLKLNSVTSEDTATYYCATTTEVALFDHWGQGTTLTVSS VL: DVLLTQTPLSLPVSLGDQASISCRSSQNIVHGNGNTYLEWFLQKPGQSPKLLIYKVSNRFSGVPDRFSGSGSGTDFTLKISRVEAEDLGLYYCFQASHVPWTFGGGTKLEIKR | 1.12 | 3780 | 1.76 | 2700 | 1.6 | 1.85 | 0.58 | 1.88 | 0.16 | 0.11 | 0.1 |
| F1.62.9 human-murine chimeric antibody (antibody, human IgG1, kappa, V domains shown) VH: QVQLQQSDAELVKPGASVKISCKVSGYIFTDHTIHWMKQRPEQGLEWIGYIYPRDGSIKYNENFKGKATLTADKSSSATYMQLNSLTSEDSAVYFCARPIYYDYAYYFDYWGQGTTLTVSS VL: DVVMTQSPLSLPVSLGDQASISCRSRQSLVHSNGNTYLHWYLQKPGQSPKVLIYKVSNRFSGVPDRFSGSGSGTDFTLKISRVEAEDLGVYFCSQSTHVPYTFGGGTKLEIKR | 1.32 | 3250 | 3.49 | 2160 | 0.63 | 0.96 | 0.2 | 1.09 | 0.1 | 0.09 | 0.11 |
| F1.153.1 human-murine chimeric antibody (antibody, human IgG1, kappa, V domains shown) VH: QIQLVQSGPELKKPGETVKISCKASGYTFTTAGMQWVQKMPGKGFKWIGWINTHSGEPQYAEDFKGRFAFSLETSASTAYLQISNLKNEDTATYFCARSFYYHGSSFFYFDYWGQGTTLTVSS VL: DIVMTQSQKFMSTTVGDRVSITCKASQNVGTAVAWYQQKPGQSPKLLIYSASNRYTGVPDRFTGSGSGADFTLTISNMQSEDLADYFCQQYSRYPLTFGAGTKLELKR | 1.3 | 4100 | 0.91 | 3080 | 1.56 | 1.85 | 0.64 | 2.06 | 0.15 | 0.1 | 0.11 |
| F2.55.11 human-murine chimeric antibody (antibody, human IgG1, kappa, V domains shown) VH: EVKLVESGGGLVKPGGSLKLSCAASGLTFSTCTMSWVRQTPAKRLEWVATISSGGGNTYYPDSVKGRFTISRDNARNTLYLQMSSLRSEDTAMYYCVRLYYDGSPYAMDYWGQGTSVTVSS VL: DIQMTQTTSSLSASLGDRVTISCRASQDISNHLNWYQQKPDGTVKLLIYYTSRLHSGVPSRFSGSGSGTDYSLTISNLEQEDIATYFCQQDSKPPPTFGSGTKLEIKR | 0.66 | 1630 | 0.89 | 13600 | 2.24 | 2.66 | 1.57 | 2.58 | 0.43 | 0.15 | 0.11 |
| F2.154.1 human-murine chimeric antibody (antibody, human IgG1, kappa, V domains shown) VH: QVQLQQSGAELVRPGASVKLSCKASGYRFTDYEMHWVKQTPVHGLEWIGTIDPETGNTAYTQKFMDKATLTADKSSSTAYMELRSLTSEDSAVYYCTRGYSFTYWGQGTLATVSA VL: DVLMTQTPLSLPVSLGDQASISCRSSQNIVHSNGNTYLQWYLQKPGQSPKLLIFKVSNRFSGVPDRFSGSGSGTDFTLKISRVEAEDLGVYYCFQGSHVPFTFGTGTKLEIKR | 0.37 | 5450 | 1.14 | 26700 | 2.31 | 2.52 | 1.57 | 2.61 | 0.38 | 0.13 | 0.09 |
